This is an account of results in patent publication US20230212306A1 (Daiichi Sankyo, published 2023).

Assay [1] has as its target T1, rat TLR7-Flag, expressed in HEK293 cells (rat, UniProt P58681 27-1050 (mouse entry)).
T1 construct: not shown: Flag tag
T1 chain: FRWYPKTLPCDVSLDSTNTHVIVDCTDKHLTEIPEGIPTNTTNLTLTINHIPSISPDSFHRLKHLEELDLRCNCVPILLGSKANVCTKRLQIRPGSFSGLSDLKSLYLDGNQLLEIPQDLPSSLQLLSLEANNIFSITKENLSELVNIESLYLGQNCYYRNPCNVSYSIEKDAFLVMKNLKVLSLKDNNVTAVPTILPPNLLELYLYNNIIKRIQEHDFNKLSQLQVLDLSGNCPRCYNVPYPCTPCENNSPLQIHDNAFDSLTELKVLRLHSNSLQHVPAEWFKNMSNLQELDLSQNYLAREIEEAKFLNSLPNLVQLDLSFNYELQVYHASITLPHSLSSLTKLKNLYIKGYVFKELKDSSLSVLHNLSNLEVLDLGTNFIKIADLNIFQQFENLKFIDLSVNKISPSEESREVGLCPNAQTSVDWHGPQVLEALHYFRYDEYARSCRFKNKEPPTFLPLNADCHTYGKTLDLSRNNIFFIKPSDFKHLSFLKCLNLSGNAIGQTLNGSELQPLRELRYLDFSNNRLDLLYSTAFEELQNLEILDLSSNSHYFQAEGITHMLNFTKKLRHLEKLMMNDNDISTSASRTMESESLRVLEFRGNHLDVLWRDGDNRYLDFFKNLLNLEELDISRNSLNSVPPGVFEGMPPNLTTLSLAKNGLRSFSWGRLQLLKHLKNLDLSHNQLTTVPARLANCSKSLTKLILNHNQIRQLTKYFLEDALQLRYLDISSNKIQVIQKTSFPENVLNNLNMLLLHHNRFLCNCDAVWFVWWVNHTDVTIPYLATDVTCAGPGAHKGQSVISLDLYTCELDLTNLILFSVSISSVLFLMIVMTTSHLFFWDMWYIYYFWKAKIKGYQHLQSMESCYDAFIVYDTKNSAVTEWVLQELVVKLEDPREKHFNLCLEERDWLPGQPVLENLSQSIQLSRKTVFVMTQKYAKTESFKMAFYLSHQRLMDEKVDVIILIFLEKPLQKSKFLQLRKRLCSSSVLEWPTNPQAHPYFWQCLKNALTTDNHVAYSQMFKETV
The assay can be described thus: flow cytometry on fixed and permeabilised HEK293 cells expressing rat TLR7-Flag. From the text: (§1) The HEK293 cells expressing human TLR7 (variant 1)-Flag prepared in 8)-1, the HEK293 cells expressing human TLR7 (variant 2)-Flag prepared in 8)-2, the HEK293 cells expressing monkey TLR7-Flag prepared in 8)-3, the HEK293 cells expressing mouse TLR7-Flag prepared in 8)-4, and the HEK293 cells expressing rat TLR7-Flag prepared in 8)-5 were immobilized/subjected to membrane permeation with a Fixation and Permeabilization Solution (Becton, Dickinson and Company) and thereafter stained using huAT01_H3L2_IgG1LALA, which is one of the humanized anti-human TLR7 antibodies, and ALEXA FLUOR® 647 AffiniPure Goat anti-human IgG+IgM (H+L) (Jackson ImmunoResearch Inc.), which is the secondary antibody.
(§2) The binding of the humanized anti-human TLR7 antibody to human TLR7 was detected based on flow cytometry (Miltenyi Biotec K.K.), and the data was analyzed using software (Flowjo) which analyzes the data of flow cytometry.

In assay [2] the target is T2, human TLR7 (variant 2)-Flag, expressed in HEK293 cells (human, UniProt Q9NYK1 27-1049).
T2 construct: Transient expression from pcDNA3.1 in Lenti-X HEK293T cells; cells fixed and permeabilised before staining; not shown: Flag tag
T2 sequence: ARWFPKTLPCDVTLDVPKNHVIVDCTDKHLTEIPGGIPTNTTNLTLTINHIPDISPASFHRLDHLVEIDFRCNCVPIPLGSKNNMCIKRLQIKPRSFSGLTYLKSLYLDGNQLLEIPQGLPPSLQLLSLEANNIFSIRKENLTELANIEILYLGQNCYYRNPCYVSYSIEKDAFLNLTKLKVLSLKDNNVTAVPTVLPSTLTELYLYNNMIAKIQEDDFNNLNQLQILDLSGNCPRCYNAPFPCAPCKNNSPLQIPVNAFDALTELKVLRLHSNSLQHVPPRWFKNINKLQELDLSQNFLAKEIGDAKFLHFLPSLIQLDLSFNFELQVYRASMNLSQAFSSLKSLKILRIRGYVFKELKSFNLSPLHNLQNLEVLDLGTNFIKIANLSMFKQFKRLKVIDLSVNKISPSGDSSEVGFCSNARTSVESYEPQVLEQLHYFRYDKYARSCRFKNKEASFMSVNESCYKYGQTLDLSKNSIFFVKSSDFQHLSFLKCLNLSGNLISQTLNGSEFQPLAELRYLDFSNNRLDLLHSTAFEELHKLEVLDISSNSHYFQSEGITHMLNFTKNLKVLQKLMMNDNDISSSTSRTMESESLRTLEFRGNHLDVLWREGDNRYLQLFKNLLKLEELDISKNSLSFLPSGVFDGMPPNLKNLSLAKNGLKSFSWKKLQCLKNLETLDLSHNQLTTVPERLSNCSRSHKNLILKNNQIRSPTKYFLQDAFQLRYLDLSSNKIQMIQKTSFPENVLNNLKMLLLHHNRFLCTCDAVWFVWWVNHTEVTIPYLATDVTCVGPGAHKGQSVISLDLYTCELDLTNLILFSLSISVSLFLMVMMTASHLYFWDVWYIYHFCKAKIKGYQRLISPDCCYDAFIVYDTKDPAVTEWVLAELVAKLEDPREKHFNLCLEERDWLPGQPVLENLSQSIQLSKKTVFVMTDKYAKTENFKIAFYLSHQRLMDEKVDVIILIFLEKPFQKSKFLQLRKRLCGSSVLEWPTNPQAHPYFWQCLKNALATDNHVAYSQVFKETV
Briefly: flow cytometry on fixed and permeabilised HEK293 cells expressing human TLR7 (variant 2)-Flag.
Source text: as §1, §2
(In general: In flow cytometry, cells or beads pass a laser one at a time.)

B1: huAT01_H3L2_IgG1LALA antibody (antibody, V domains shown)
VH: QVQLVQSGAEVKKPGASVKVSCKASGYTFTNNWLHWVRQAPGQGLEWMGDIYPSNGRTNYAQKFQGRVTLTVDKSTSTAYMELSSLRSEDTAVYFCARERGYFDYWGQGTLVTVSS
VL: DIQMTQSPSSLSASVGDRVTITCKASQDINKYIAWYQQKPGKAPKLLIHYTSTLQPGIPSRFSGSGSGRDYTLTISSLQPEDFATYYCLQYDYLLTFGQGTKVEIKR
notes: Humanized AT01; heavy huAT01_H3_IgG1LALA, light huAT01_L2
On to B1, for which the binding result in assay [1] is given as “no binding”; in assay [2] it was “binds”.
